# Values of other authors as cited in PMC2797979 (Diabetes Care, 2009).
# Conditions: long-acting insulin analogs
substance,measurement,value
detemir,Elimination half-life,24 h
